Reference: PMC4658161, “Mutually Exclusive Roles of SHARPIN in Integrin Inactivation and NF-κB Signaling” (PLoS ONE, 2015)

B1: GST-SHARPIN^WT [not stated] / recombinant RNF31 [not stated] (parent complex)
chain 1: MAPPAGGAAAAASDLGSAAVLLAVHAAVRPLGAGPDAEAQLRRLQLSADPERPGRFRLELLGAGPGAVNLEWPLESVSYTIRGPTQHELQPPPGGPGTLSLHFLNPQEAQRWAVLVRGATVEGQNGSKSNSPPALGPEACPVSLPSPPEASTLKGPPPEADLPRSPGNLTEREELAGSLARAIAGGDEKGAAQVAAVLAQHRVALSVQLQEACFPPGPIRLQVTLEDAASAASAASSAHVALQVHPHCTVAALQEQVFSELGFPPAVQRWVIGRCLCVPERSLASYGVRQDGDPAFLYLLSAPREAPATGPSPQHPQKMDGELGRLFPPSLGLPPGPQPAASSLPSPLQPSWSCPSCTFINAPDRPGCEMCSTQRPCTWDPLAAAST
chain 2: MPGEEEERAFLVAREELASALRRDSGQAFSLEQLRPLLASSLPLAARYLQLDAARLVRCNAHGEPRNYLNTLSTALNILEKYGRNLLSPQRPRYWRGVKFNNPVFRSTVDAVQGGRDVLRLYGYTEEQPDGLSFPEGQEEPDEHQVATVTLEVLLLRTELSLLLQNTHPRQQALEQLLEDKVEDDMLQLSEFDPLLREIAPGPLTTPSVPGSTPGPCFLCGSAPGTLHCPSCKQALCPACDHLFHGHPSRAHHLRQTLPGVLQGTHLSPSLPASAQPRPQSTSLLALGDSSLSSPNPASAHLPWHCAACAMLNEPWAVLCVACDRPRGCKGLGLGTEGPQGTGGLEPDLARGRWACQSCTFENEAAAVLCSICERPRLAQPPSLVVDSRDAGICLQPLQQGDALLASAQSQVWYCIHCTFCNSSPGWVCVMCNRTSSPIPAQHAPRPYASSLEKGPPKPGPPRRLSAPLPSSCGDPEKQRQDKMREEGLQLVSMIREGEAAGACPEEIFSALQYSGTEVPLQWLRSELPYVLEMVAELAGQQDPGLGAFSCQEARRAWLDRHGNLDEAVEECVRTRRRKVQELQSLGFGPEEGSLQALFQHGGDVSRALTELQRQRLEPFRQRLWDSGPEPTPSWDGPDKQSLVRRLLAVYALPSWGRAELALSLLQETPRNYELGDVVEAVRHSQDRAFLRRLLAQECAVCGWALPHNRMQALTSCECTICPDCFRQHFTIALKEKHITDMVCPACGRPDLTDDTQLLSYFSTLDIQLRESLEPDAYALFHKKLTEGVLMRDPKFLWCAQCSFGFIYEREQLEATCPQCHQTFCVRCKRQWEEQHRGRSCEDFQNWKRMNDPEYQAQGLAMYLQENGIDCPKCKFSYALARGGCMHFHCTQCRHQFCSGCYNAFYAKNKCPEPNCRVKKSLHGHHPRDCLFYLRDWTALRLQKLLQDNNVMFNTEPPAGARAVPGGGCRVIEQKEVPNGLRDEACGKETPAGYAGLCQAHYKEYLVSLINAHSLDPATLYEVEELETATERYLHVRPQPLAGEDPPAYQARLLQKLTEEVPLGQSIPRRRK

Variants of: B1
Test: ELISA-based binding assay; n = 3; parent: 1; read off a plot

Variant | response [Abs 450nm]
chain 1 L261A, chain 1 F263A | ~0.7
chain 1 I272A | ~0.45

Now from value to variant:

response [Abs 450nm] | Variant
~0.69 | chain 1 V267A
~0.49 | chain 1 L276A
